Here are results for two molecules from PMC10897342, “An octameric PqiC toroid stabilises the outer-membrane interaction of the PqiABC transport system” (EMBO Reports, 2024).

Data set [1] concerns the molecule itself. The data set is described as follows: crystal structure; PqiC-His in DDM; 3.2 Å; two chains in the asymmetric unit, octameric toroid by the symmetry of the unit cell; interface analysed with PDBePISA.
For data set [2], the target named is T1, PqiAB subcomplex (PqiA residues 1–417 and PqiB residues 1–546, C-terminal hexa-histidine tag) (E. coli, UniProt P0AFL9 1-417; P43671 1-546).
T1 construct: PqiA, integral inner membrane protein of E. coli, residues 1–417; PqiB, periplasm-spanning MCE family protein of E. coli, residues 1–546; also called purified PqiAB subcomplex; PqiAB-proteoliposomes; copies: + 6
T1 sequence (looked up) 1: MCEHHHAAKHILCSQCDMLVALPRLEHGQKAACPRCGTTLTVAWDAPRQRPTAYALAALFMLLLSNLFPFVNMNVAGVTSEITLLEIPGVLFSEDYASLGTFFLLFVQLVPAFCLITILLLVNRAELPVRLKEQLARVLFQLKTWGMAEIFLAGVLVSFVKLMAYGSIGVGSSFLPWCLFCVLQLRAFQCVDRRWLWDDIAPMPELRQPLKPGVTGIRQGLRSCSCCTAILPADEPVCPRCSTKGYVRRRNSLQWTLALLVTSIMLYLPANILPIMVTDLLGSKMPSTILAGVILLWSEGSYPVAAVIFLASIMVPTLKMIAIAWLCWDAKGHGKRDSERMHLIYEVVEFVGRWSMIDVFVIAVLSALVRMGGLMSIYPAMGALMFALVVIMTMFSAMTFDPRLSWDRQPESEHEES
T1 sequence (looked up) 2: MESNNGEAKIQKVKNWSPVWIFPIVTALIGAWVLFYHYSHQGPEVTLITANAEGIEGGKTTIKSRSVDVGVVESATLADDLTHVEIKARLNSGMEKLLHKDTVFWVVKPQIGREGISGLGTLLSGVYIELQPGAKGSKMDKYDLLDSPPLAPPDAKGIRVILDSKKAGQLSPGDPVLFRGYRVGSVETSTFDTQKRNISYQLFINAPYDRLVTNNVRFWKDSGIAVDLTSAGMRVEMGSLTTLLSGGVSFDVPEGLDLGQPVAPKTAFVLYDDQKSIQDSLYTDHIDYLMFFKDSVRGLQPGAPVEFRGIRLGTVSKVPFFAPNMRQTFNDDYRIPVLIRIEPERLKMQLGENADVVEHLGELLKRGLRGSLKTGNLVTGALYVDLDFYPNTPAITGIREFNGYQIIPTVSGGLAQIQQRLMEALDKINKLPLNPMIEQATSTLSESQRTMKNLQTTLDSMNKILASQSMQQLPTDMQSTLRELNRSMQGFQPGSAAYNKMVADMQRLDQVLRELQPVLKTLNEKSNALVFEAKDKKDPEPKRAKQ
The data set is described as follows: neutron reflectometry; PqiC in a supported dDMPC bilayer on silicon; PqiAB-DMPC proteoliposomes (0.01 mg/mL PqiAB) incubated 30 minutes, washed; 20 mM BTP, 150 mM NaCl, pH 8.5; 25 °C; isotopic contrast variation. Conditions: both partners purified.

In data set [3] the target is T2, PqiB (residues 1–546) with a C-terminal hexa-histidine tag, of the PqiAB construct (E. coli, UniProt P43671 1-546).
T2 construct: PqiB, periplasm-spanning MCE family protein of E. coli, residues 1–546; Always present together with PqiA in the experiments; also called hexameric PqiB; source: E. coli C43 (DE3), co-expressed with PqiA, purified (Ni-NTA, SEC) in DDM, reconstituted into DMPC proteoliposomes; not shown: His6, C-terminal, kept
T2 sequence (looked up): T1 sequence (looked up) 2
The data set is described as follows: QCM-D; PqiC-Strep in a supported DMPC bilayer on a silicon sensor; PqiAB-DMPC proteoliposomes flowed over, then buffer; 25 °C, 0.1 mL/min; 20 mM Bis-Tris Propane, 150 mM NaCl, pH 8.5. Conditions: both partners purified.

B1: E. coli PqiC (residues 1–187) with a C-terminal hexa-histidine tag (natural protein, UniProt P0AB10 16-187, looked up)
chain: CSSGEINKNYYQLPVVQSGTQSTASQGNRLLWVEQVTVPDYLAGNGVVYQTSDVKYVIANNNLWASPLDQQLRNTLVANLSTQLPGWVVASQPLGSAQDTLNVTVTEFNGRYDGKVIVSGEWLLNHQGQLIKRPFRLEGVQTQDGYDEMVKVLAGVWSQEAASIAQEIKRLP
modifications: N-terminally acylated Cysteine (C16); the construct is 'presumably processed and lipidated in the same manner as the native lipoprotein'
notes: signal peptide in the construct; the N-terminal signal peptide is called residues 1–16 in the methods, while the mature lipoprotein is said to begin at the acylated C16; Octamer by the crystal's symmetry (two chains in the asymmetric unit); also called native PqiC; full length PqiC; source: E. coli C43 (DE3), membrane fraction solubilised in DDM, purified (Ni-NTA, SEC)
As for B1, the “stoichiometry N” value in data set [1] came to 8.

B2: PqiC-Strep, E. coli PqiC residues 1–186 with a C-terminal StrepTag II (natural protein, UniProt P0AB10 16-186, looked up)
chain: CSSGEINKNYYQLPVVQSGTQSTASQGNRLLWVEQVTVPDYLAGNGVVYQTSDVKYVIANNNLWASPLDQQLRNTLVANLSTQLPGWVVASQPLGSAQDTLNVTVTEFNGRYDGKVIVSGEWLLNHQGQLIKRPFRLEGVQTQDGYDEMVKVLAGVWSQEAASIAQEIKRL
modifications: lipidation of Cys16 (the paper: 'a native PqiC construct was used')
notes: signal peptide in the construct; Stood in a supported DMPC bilayer on a silicon surface; also called PqiC (in QCM-D and NR); surface-tethered PqiC octamer
As to B2, the binding result in data set [2] and in data set [3] was “binds” each time.

Broadly, the stoichiometry N is a count of units in the complex or per binding partner.
